Reference: US12312641B2, “Sensitivity marker for antibody-drug conjugate” (priority 2018, dated 2025)

Key:
[1] = tested on: patient-derived xenograft (PDX) model; test: Anti-tumor effect (TGI) in patient-derived xenograft models, 10 to 15 days after administration; format: in vivo, nu/nu mice; conditions: for TGI (%): 10 mg/kg tail vein; for Proportion of PDX models showing TGI of 75% or more: TGI at 10 to 15 days
Experimental: Mice: Female nu/nu mice (Envigo) aged 5-8 weeks were acclimatized under SPF conditions for 3 days or more prior to experimental use. Mice were fed with sterile solid feed (Teklad2919, Envigo) and given reverse osmosis membrane-treated water (containing 2 ppm chlorine).
Measurements and Calculation formula: long and short diameters of tumors were measured twice a week with an electronic digital caliper (CD-6PMX, Mitutoyo Corp.) and tumor volume (mm^3) was calculated using the following calculation formula: Tumor volume (mm^3)=0.52×Long diameter (mm)×[Short diameter (mm)]^2
Tumor fragments from each cancer patient were subcutaneously implanted into mice and passaged. The obtained tumors were used to subcutaneously implant tumor fragments, which were cut to approximately 5×5×5 mm^3, into the left abdomen of female nu/nu mice, thereby each patient-derived xenograft (PDX) model was created. Mice were randomly grouped when the mean transplanted tumor volume reached 150 to 300 mm^3 (Day 0). On the same day as grouping, the antibody-drug conjugate (1) was administered into the tail vein at a dose of 10 mg/kg. A formulation buffer was similarly administered at a volume of 10 mL/kg as a negative control.
Data on the amount of gene expression in each PDX model used in Example 4 were obtained by the next-generation RNA sequencing method using RNA extracted from formalin-fixed paraffin-embedded specimens of each tumor. After the obtained data were normalized to a FPKM value, 1 was added to FPKM, and the sum was transformed to a logarithmic (log2) to obtain a log2[FPKM+1] value (Table 6). The log2[FPKM+1] value was used to analyze the relationship between the anti-tumor activity of antibody-drug conjugate (1) in each PDX model (Table 5) and the amount of expression of the hTROP2 gene and the SLFN11 gene.

[2] = tested on: relapsed and advanced non-small cell lung cancer; test: Phase 1 study, dose escalation part, maximum tumor change rate; format: in vivo, human
Experimental: In a dose escalation part of a Phase 1 study for patients with relapsed and advanced non-small cell lung cancer, the antibody-drug conjugate (1) was administered intravenously once every three weeks until unacceptable toxicity or worsening of the pathological condition was observed. The dose-limiting toxicity was determined in Cycle 1 (Days 1-21). Tumor sampling was performed after entry into the clinical study following the first dose. Note that a minus value in the maximum tumor change rate means that the tumor has been reduced by administration of antibody-drug conjugate (1).
Gene expression data of each patient were obtained by EdgeSeq after preparing a section from a formalin-fixed paraffin-embedded specimen of tumor tissue of each patient prior to antibody-drug conjugate (1) administration, and cutting out a tumor site by laser microdissection. The obtained count data were normalized by the Median normalization method, thereby the amount of expression of each gene was obtained. All the above tests were performed at HTG Molecular Diagnostics, Inc.
To the Median Normalized Count (MNC) value, after being obtained and normalized at HTG Molecular Diagnostics, Inc., 1 was added, and the sum was transformed to a logarithmic (log2) to obtain a log2[MNC+1] value (Table 15). The log2[MNC+1] value was used to analyze the relationship between the anti-tumor activity of antibody-drug conjugate (1) in each patient (Table 14) and the amount of expression of the hTROP2 gene and the SLFN11 gene. When all of the evaluated patients were grouped into groups having at least a certain amount of expression of the hTROP2 and SLFN11 genes (Table 16), it was shown that the proportion of patients showing at least a certain drug efficacy (maximum tumor change rate of 0% or less) is higher as the hTROP2 gene expression and the SLFN11 gene expression increases (Table 17). In the absence of grouping by SLFN11 gene expression, the proportion of patients showing the maximum tumor change rate of 0% or less was not more than 75 to 80%. […] For example, when the log2[MNC+1] value of the hTROP2 gene exceeds 12 and the log2[MNC+1] value of the SLFN11 gene exceeds 11.5, the proportion of patients in which the maximum tumor change rate is 0% or less is about 80% to 100%.

B1: antibody-drug conjugate (1): humanized anti-hTROP2 antibody (SEQ ID NO: 1 residues 20-470, SEQ ID NO: 2 residues 21-234) conjugated to the exatecan-derivative drug-linker via a thioether bond (conjugate, chains of the INN, looked up)
VH: QVQLVQSGAEVKKPGASVKVSCKASGYTFTTAGMQWVRQAPGQGLEWMGWINTHSGVPKYAEDFKGRVTISADTSTSTAYLQLSSLKSEDTAVYYCARSGFGSSYWYFDVWGQGTLVTVSS
VL: DIQMTQSPSSLSASVGDRVTITCKASQDVSTAVAWYQQKPGKAPKLLIYSASYRYTGVPSRFSGSGSGTDFTLTISSLQPEDFAVYYCQQHYITPLTFGQGTKLEIK
modifications: exatecan-derivative drug-linker
[1]; PDX model #1, Breast, Day 14
  TGI (%): 95.2%
[1]; PDX model #2, Lung, Day 14
  TGI (%): 68.3%
[1]; PDX model #3, Cholangiocarcinoma, Day 14
  TGI (%): 22.2%
[1]; PDX model #4, Pancreatic, Day 14
  TGI (%): 21.8%
[1]; PDX model #5, Colorectal, Day 14
  TGI (%): 41.7%
[1]; PDX model #6, Breast, Day 14
  TGI (%): 92.4%
[1]; PDX model #7, Breast, Day 15
  TGI (%): 87.6%
[1]; PDX model #8, Head & neck, Day 14
  TGI (%): 57.9%
[1]; PDX model #9, Head & neck, Day 14
  TGI (%): 94.0%
[1]; PDX model #10, Lung, Day 14
  TGI (%): 97.3%
[1]; PDX model #11, Lung, Day 14
  TGI (%): 87.4%
[1]; PDX model #12, Breast, Day 15
  TGI (%): 90.0%
[1]; PDX model #13, Lung, Day 14
  TGI (%): 62.3%
[1]; PDX model #14, Breast, Day 14
  TGI (%): 82.7%
[1]; PDX model #15, Cholangiocarcinoma, Day 14
  TGI (%): 46.4%
[1]; PDX model #16, Colorectal, Day 14
  TGI (%): 26.0%
[1]; PDX model #17, Breast, Day 14
  TGI (%): 56.5%
[1]; PDX model #18, Lung, Day 14
  TGI (%): 14.6%
[1]; PDX model #19, Lung, Day 14
  TGI (%): 28.1%
[1]; PDX model #20, Lung, Day 14
  TGI (%): 82.0%
[1]; PDX model #21, Lung, Day 14
  TGI (%): 76.6%
[1]; PDX model #22, Lung, Day 14
  TGI (%): 87.9%
[1]; PDX model #23, Lung, Day 14
  TGI (%): 4.7%
[1]; PDX model #24, Lung, Day 14
  TGI (%): 19.1%
[1]; PDX model #25, Pancreatic, Day 14
  TGI (%): 37.9%
[1]; PDX model #26, Pancreatic, Day 13
  TGI (%): 62.3%
[1]; PDX model #27, Lung, Day 13
  TGI (%): 48.5%
[1]; PDX model #28, Breast, Day 14
  TGI (%): 92.6%
[1]; PDX model #29, Breast, Day 14
  TGI (%): 97.4%
[1]; PDX model #30, Lung, Day 10
  TGI (%): 84.7%
[1]; PDX model #31, Colorectal, Day 14
  TGI (%): 58.4%
[1]; PDX model #32, Lung, Day 13
  TGI (%): 64.9%
[1]; PDX model #33, Lung, Day 14
  TGI (%): 25.0%
[1]; PDX model #34, Lung, Day 13
  TGI (%): 89.7%
[1]; PDX model #35, Lung, Day 14
  TGI (%): −0.4%
[1]; log2[FPKM+1]: hTROP2 >4.0, SLFN11 >1, 21 models
  Proportion of PDX models showing TGI of 75% or more: 57%
[1]; log2[FPKM+1]: hTROP2 >4.0, SLFN11 >2, 15 models
  Proportion of PDX models showing TGI of 75% or more: 60%
[1]; log2[FPKM+1]: hTROP2 >4.0, SLFN11 >3, 9 models
  Proportion of PDX models showing TGI of 75% or more: 67%
[1]; log2[FPKM+1]: hTROP2 >4.0, SLFN11 All models, 32 models
  Proportion of PDX models showing TGI of 75% or more: 44%
[1]; log2[FPKM+1]: hTROP2 >5.0, SLFN11 >1, 18 models
  Proportion of PDX models showing TGI of 75% or more: 56%
[1]; log2[FPKM+1]: hTROP2 >5.0, SLFN11 >2, 13 models
  Proportion of PDX models showing TGI of 75% or more: 62%
[1]; log2[FPKM+1]: hTROP2 >5.0, SLFN11 >3, 7 models
  Proportion of PDX models showing TGI of 75% or more: 71%
[1]; log2[FPKM+1]: hTROP2 >5.0, SLFN11 All models, 29 models
  Proportion of PDX models showing TGI of 75% or more: 41%
[1]; log2[FPKM+1]: hTROP2 >6.0, SLFN11 >1, 17 models
  Proportion of PDX models showing TGI of 75% or more: 59%
[1]; log2[FPKM+1]: hTROP2 >6.0, SLFN11 >2, 12 models
  Proportion of PDX models showing TGI of 75% or more: 67%
[1]; log2[FPKM+1]: hTROP2 >6.0, SLFN11 >3, 6 models
  Proportion of PDX models showing TGI of 75% or more: 83%
[1]; log2[FPKM+1]: hTROP2 >6.0, SLFN11 All models, 25 models
  Proportion of PDX models showing TGI of 75% or more: 48%
[1]; log2[FPKM+1]: hTROP2 >7.0, SLFN11 >1, 11 models
  Proportion of PDX models showing TGI of 75% or more: 64%
[1]; log2[FPKM+1]: hTROP2 >7.0, SLFN11 >2, 7 models
  Proportion of PDX models showing TGI of 75% or more: 86%
[1]; log2[FPKM+1]: hTROP2 >7.0, SLFN11 >3, 4 models
  Proportion of PDX models showing TGI of 75% or more: 100%
[1]; log2[FPKM+1]: hTROP2 >7.0, SLFN11 All models, 16 models
  Proportion of PDX models showing TGI of 75% or more: 50%
[1]; log2[FPKM+1]: hTROP2 All models, SLFN11 >1, 24 models
  Proportion of PDX models showing TGI of 75% or more: 54%
[1]; log2[FPKM+1]: hTROP2 All models, SLFN11 >2, 18 models
  Proportion of PDX models showing TGI of 75% or more: 56%
[1]; log2[FPKM+1]: hTROP2 All models, SLFN11 >3, 12 models
  Proportion of PDX models showing TGI of 75% or more: 58%
[1]; log2[FPKM+1]: hTROP2 All models, SLFN11 All models, 35 models
  Proportion of PDX models showing TGI of 75% or more: 43%
[1]; log2[FPKM+1]: hTROP2 exceeds 7.0 and SLFN11 exceeds 3.0
  Proportion of animal models showing TGI of 75% or more: 100%
[2]; Patient #1, 2 mg/kg intravenously once every three weeks
  Maximum tumor change rate (%): −7.14%
[2]; Patient #2, 2 mg/kg intravenously once every three weeks
  Maximum tumor change rate (%): −68.52%
[2]; Patient #3, 2 mg/kg intravenously once every three weeks
  Maximum tumor change rate (%): −4.76%
[2]; Patient #4, 2 mg/kg intravenously once every three weeks
  Maximum tumor change rate (%): −11.70%
[2]; Patient #5, 2 mg/kg intravenously once every three weeks
  Maximum tumor change rate (%): 52.00%
[2]; Patient #6, 2 mg/kg intravenously once every three weeks
  Maximum tumor change rate (%): 3.15%
[2]; Patient #7, 4 mg/kg intravenously once every three weeks
  Maximum tumor change rate (%): 33.33%
[2]; Patient #8, 4 mg/kg intravenously once every three weeks
  Maximum tumor change rate (%): −53.13%
[2]; Patient #9, 6 mg/kg intravenously once every three weeks
  Maximum tumor change rate (%): −52.27%
[2]; Patient #10, 8 mg/kg intravenously once every three weeks
  Maximum tumor change rate (%): −3.47%
[2]; Patient #11, 8 mg/kg intravenously once every three weeks
  Maximum tumor change rate (%): −35.46%
[2]; Patient #12, 8 mg/kg intravenously once every three weeks
  Maximum tumor change rate (%): −63.64%
[2]; log2[MNC+1]: hTROP2 >12, SLFN11 >11.5, 8 patients
  Proportion of patients showing a maximum tumor change rate of 0% or less: 88%
[2]; log2[MNC+1]: hTROP2 >12, SLFN11 >12.5, 4 patients
  Proportion of patients showing a maximum tumor change rate of 0% or less: 100%
[2]; log2[MNC+1]: hTROP2 >12, SLFN11 All, 9 patients
  Proportion of patients showing a maximum tumor change rate of 0% or less: 78%
[2]; log2[MNC+1]: hTROP2 >14, SLFN11 >11.5, 5 patients
  Proportion of patients showing a maximum tumor change rate of 0% or less: 80%
[2]; log2[MNC+1]: hTROP2 >14, SLFN11 >12.5, 2 patients
  Proportion of patients showing a maximum tumor change rate of 0% or less: 100%
[2]; log2[MNC+1]: hTROP2 >14, SLFN11 All, 5 patients
  Proportion of patients showing a maximum tumor change rate of 0% or less: 80%
[2]; log2[MNC+1]: hTROP2 All, SLFN11 >11.5, 11 patients
  Proportion of patients showing a maximum tumor change rate of 0% or less: 82%
[2]; log2[MNC+1]: hTROP2 All, SLFN11 >12.5, 5 patients
  Proportion of patients showing a maximum tumor change rate of 0% or less: 100%
[2]; log2[MNC+1]: hTROP2 All, SLFN11 All, 12 patients
  Proportion of patients showing a maximum tumor change rate of 0% or less: 75%
